Experimental data reported in the Immune Epitope Database (IEDB).

Legend:
[1] = target: HLA-B*15:03; assay: IEDB peptide-MHC binding, purified MHC/competitive/radioactivity; filed as Kd, often an IC50 or EC50 that approximates it; ≥ and ≤ were set here for values at or beyond the usual limits of such assays
[2] = target: HLA-B*15:01; assay: as above; conditions: source organism: Vaccinia virus WR
[3] = target: HLA-B*08:01; assay: as above; conditions: source organism: Vaccinia virus WR
[4] = target: HLA-B*54:01; assay: as above
[5] = target: HLA-B*07:02; assay: as above
[6] = target: HLA-B*35:01; assay: as above
[7] = target: HLA-B*51:01; assay: as above
[8] = target: HLA-B*53:01; assay: as above
[9] = target: HLA-A*30:01; assay: as above; conditions: source organism: Vaccinia virus WR
[10] = target: HLA-A*32:01; assay: as above; conditions: source organism: Vaccinia virus WR
[11] = target: HLA-B*44:03; assay: as above; conditions: source organism: Mammarenavirus lassaense
[12] = target: HLA-B*40:01; assay: IEDB peptide-MHC binding, purified MHC/direct/fluorescence; filed as Kd, often an IC50 or EC50 that approximates it; ≥ and ≤ were set here for values at or beyond the usual limits of such assays; conditions: source organism: Entamoeba histolytica HM-1:IMSS
[13] = target: HLA-B*18:01; assay: as above; conditions: source organism: Entamoeba histolytica HM-1:IMSS
[14] = source organism: Vaccinia virus WR
[15] = source organism: Mammarenavirus lassaense

LPVIFLSIF
Kd [1, 14]: 162 nM

SSRRYRCSF
Kd [2]: 682 nM | Kd [1, 14]: 54.5 nM | Kd [3]: 11.5 nM

SQYLSRVSL
Kd [1, 14]: 0.235 nM

KKVIGFVSI
Kd [1, 14]: 7.49 nM

DPSERVFKKI
Kd [4, 14]: ≥ 43300 nM | Kd [5, 14]: ≥ 69600 nM | Kd [6, 14]: ≥ 69900 nM | Kd [7, 14]: ≥ 46700 nM | Kd [8, 14]: 18200 nM

IMALIVSIF
Kd ([1]; source organism: Vaccinia virus): 4.53 nM

FPSIFSTEV
Kd [4, 15]: 4.42 nM | Kd [5, 15]: 244 nM | Kd [6, 15]: 97.7 nM | Kd [7, 15]: 330 nM | Kd [8, 15]: 57.3 nM

CLNNSLMSF
Kd ([1]; source organism: Vaccinia virus Copenhagen): 0.768 nM

KIGMFNLTF
Kd [9]: 4760 nM | Kd [10]: 0.268 nM | Kd [2]: 0.209 nM | Kd [1, 14]: 12.6 nM | Kd [3]: ≥ 36100 nM

DPMVIENGI
Kd [4, 14]: 485 nM | Kd [5, 14]: 388 nM | Kd [6, 14]: 2360 nM | Kd [7, 14]: 34.6 nM | Kd [8, 14]: 3860 nM

NLLCHIYSL
Kd [9]: 56.3 nM | Kd [10]: 231 nM | Kd [2]: 1930 nM | Kd [1, 14]: 2030 nM | Kd [3]: 0.307 nM

CPNSYDSIM
Kd [4, 15]: 1590 nM | Kd [5, 15]: 142 nM | Kd [6, 15]: 8.12 nM | Kd [11]: 7570 nM | Kd [7, 15]: 2270 nM | Kd [8, 15]: 41.9 nM

YEYVLIGIL
Kd [12]: ≤ 1 nM | Kd [13]: 4 nM

KTSSFKISK
Kd [9]: 88.1 nM | Kd [10]: ≥ 23000 nM | Kd [2]: ≥ 62200 nM | Kd [1, 14]: ≥ 68000 nM | Kd [3]: ≥ 31400 nM
